This is an account of results in paper PMC10873347.

The experiment addresses actin (pyrene-labeled filaments). Put plainly: pyrene-actin fluorescence quenching titration. Particulars: sites S3.

Chain of human cofilin-1 (from UniProt P23528) cofilin S3D (P23528 whole entry, looked up, stated change not applied): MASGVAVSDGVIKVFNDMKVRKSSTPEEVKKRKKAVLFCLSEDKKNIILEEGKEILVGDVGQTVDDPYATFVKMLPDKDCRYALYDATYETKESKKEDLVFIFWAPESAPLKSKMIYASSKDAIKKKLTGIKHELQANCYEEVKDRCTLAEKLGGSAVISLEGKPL
Chain of human cofilin-1 (from UniProt P23528) cofilin S3D,G4L (P23528 whole entry, looked up, stated change not applied): as above
Chain of human cofilin-1 (from UniProt P23528) cofilin S3D,G4F (P23528 whole entry, looked up, stated change not applied): as above

“human cofilin-1 (from UniProt P23528) cofilin S3D”: under “reference: cofilin WT”, the “other: K0.5” value is “weaker; reference 0.61”.
As to “human cofilin-1 (from UniProt P23528) cofilin S3D,G4F”, the “other: K0.5” value (reference: cofilin G4F) was “same; reference 1.0”.
Take “human cofilin-1 (from UniProt P23528) cofilin S3D,G4L”: the “other: K0.5” value (reference: cofilin G4L) is listed as “same; reference 0.59”.
